Experimental data published in patent publication US5721133.

Assays:
[1] = target: hybrid regulatory protein encoded by plasmid p1009 (GAL4 residues 1-147, functional wild-type Coxsackievirus 3C protease linker, GAL4 residues 768-881) (yeast S. cerevisiae; Coxsackievirus (CVB3)) (UniProt P03313)
[2] = target: hybrid regulatory protein encoded by plasmid pHP236 (GAL4 residues 1-147, functional HIV-1 protease linker, GAL4 residues 768-881) (yeast S. cerevisiae; HIV-1 (λHXB-2 subclone)) (UniProt P04585)

Row | Substance | β-Galactosidase Activity (MUG units), GAL1-lacZ reporter in yeast GGY1::171 [1] [MUG units] | β-Galactosidase Activity (MUG units), GAL1-lacZ reporter in yeast GGY1::171 [2] [MUG units]
1 | hybrid regulatory protein encoded by plasmid p1009 (GAL4 residues 1-147, functional wild-type Coxsackievirus 3C protease linker, GAL4 residues 768-881) (from UniProt P03313) (enzyme) | 14 | –
2 | hybrid regulatory protein encoded by plasmid pHP236 (GAL4 residues 1-147, functional HIV-1 protease linker, GAL4 residues 768-881) (from UniProt P04585) (enzyme) | – | 68
